In the supplement of paper PMC10567573:
± gives the standard deviation.

Assay: protein stability index of a GFP-peptide fusion (GPS, HEK-293T) (PSI 1-6); higher = more stable
[1] = treatment: DMSO, c terminus: a fixed tail appended
[2] = treatment: MLN4924 1 uM, 8 h, c terminus: a fixed tail appended
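Further: 24-mer peptide tiles fused after GFP, lentivirally expressed, FACS-sorted into six equal bins by GFP/DsRed ratio, decoded by Illumina sequencing, PSI is the read-weighted mean bin number.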

Sequence	protein stability index [1]	protein stability index [2]	protein stability index (treatment: DMSO, c terminus: native)	protein stability index (treatment: MLN4924 1 uM, 8 h, c terminus: native)
QLLILLQNCTDEGEREAIQKSVTR [POP5]	3.91 ± 0.26	4.12 ± 0.27	–	–
ESIVPIPSSNEEIRLVDDAFGKIC [INTS4]	4.05 ± 0.35	4.29 ± 0.32	–	–
LMSDLRRKRTAHERAKELYSSGEF [INTS4]	3.54 ± 0.19	3.65 ± 0.1	–	–
EEGIVSPSDLDLVMSEGLGMRYAF [CRYL1]	2.27 ± 0.42	3.02 ± 0.31	–	–
TSYRLQGLKPNSLYYFRLAARSPQ [PTPRD]	2.33 ± 0.52	2.42 ± 0.39	–	–
AFSSRLGGSRGAPGLLMAVGQDLY [DCAF4]	2.19 ± 0.48	2.15 ± 0.38	–	–
TWLTTPKSTWPRYSKPGLSMRLLE [TCF25]	2.41 ± 0.61	2.29 ± 0.31	–	–
CTSRIFVQKSIYSEFLKRFVEATR [ALDH8A1]	2.36 ± 0.52	2.34 ± 0.5	–	–
MEQFCWPHLRSFCETCVGSWSIQM	2.82 ± 0.44	2.49 ± 0.73	–	–
SEDRTIRVWLKRDSGQYWPSIYHT [WDFY1]	2.15 ± 0.19	2.25 ± 0.31	–	–
PESRSLPSSPLRLGSYKAQKTSRS [PPEF2]	5.29 ± 0.16	5.14 ± 0.24	–	–
QEYQVLLDVRARLECEINTYRSLL [KRT33B]	2.25 ± 0.34	2.19 ± 0.26	–	–
EMAFNTRCKEENTIILQQLLPLRT [NLN]	2.54 ± 0.55	2.5 ± 0.32	–	–
MGSQHSAAARPSSCRRKQEDDRDG [TMEM106C]	5.22 ± 0.15	5.4 ± 0.15	–	–
VLAARSPVFNAMFEHEMEESKKNR [SPOPL]	3.73 ± 0.2	4.27 ± 0.29	–	–
MVEADRPGKLFIGGLNTETNEKAL [RBMX]	4.75 ± 0.096	4.39 ± 0.48	–	–
DNAIMLFSPDFTLRNTLKSTSEDS [FAN1]	4.22 ± 0.34	4.2 ± 0.5	–	–
AIIASLTFLYTLLREVIHPLATSH [STEAP1]	3.25 ± 0.34	2.89 ± 0.39	–	–
TAFAPKMIVDLLSEKKTISFQGCM [OR4A15]	2.08 ± 0.13	2.26 ± 0.42	–	–
YQEIFQQLQRSWVKMDQKSKHLKE [TRIM43]	2.41 ± 0.32	2.6 ± 0.32	–	–
TASTKNCMVGYDMGATRCDFTLSK [CPXM2]	2.64 ± 0.4	3.03 ± 0.51	–	–
LLLDCGAEVNAVDNEGNSALHIIV [FEM1B]	2.39 ± 0.45	2.24 ± 0.42	–	–

Sequence	protein stability index [1]	protein stability index [2]	protein stability index (treatment: DMSO, c terminus: native)	protein stability index (treatment: MLN4924 1 uM, 8 h, c terminus: native)
TITMAHLLAAREDLSKIIRTSSGT [FAM98B]	2.31 ± 0.33	2.38 ± 0.4	–	–
EELQSWVRGHHPKSGEEAVTVLED [ZNF232]	5.09 ± 0.38	5.07 ± 0.39	–	–
NHDIRTANDGDYWRLLNPGEYVVT [CPXM2]	2.96 ± 0.21	3.25 ± 0.31	–	–
WMIEEKATITSRGSSLSGSLCSLL [LURAP1L]	2.28 ± 0.17	2.47 ± 0.2	–	–
FIVLFLLWPFAWLQVAGLSEEQLQ [LPCAT4]	2.65 ± 0.13	3.05 ± 0.59	–	–
RELNLPFGGMKSSGIGREGAKDSY [ALDH8A1]	4.08 ± 0.12	4.16 ± 0.37	–	–
DMKLIILANRLCLPHLVALTEQYT [RHOBTB2]	3.8 ± 0.26	3.08 ± 1.3	–	–
ADQRSRMLSIFYFAIPVGSGLGYI [SPNS1]	2.44 ± 0.52	2.26 ± 0.31	–	–
DTSGFPDLSDNRNEDPLVLLAWRC [FBXO33]	2.67 ± 0.23	3 ± 0.46	–	–
LFCDVTLTAQGQQFHCHKAVLASC [KLHL14]	2.66 ± 0.55	2.71 ± 0.57	–	–
KQPLRKYVTPSDFDQLKQFLTFDK [EFHC1]	2.94 ± 0.18	3.02 ± 0.17	–	–
PHRMDRRLLALIYLAHASDVLENA [GOLPH3]	2.55 ± 0.27	2.34 ± 0.21	–	–
ASHCLMNHPDLAKDLTEYLKVRSH [PDS5B]	3.05 ± 0.27	3.01 ± 0.18	–	–
VELHYEEGSPRNLGTPTSSTPRPS [C2CD2L]	4.63 ± 0.48	4.48 ± 0.32	–	–
TEEELRRIQTQKEQAKENENGELQ [ZC2HC1C]	5.68 ± 0.23	5.54 ± 0.14	–	–
DPFTVPTISFICRELDAISTNEEE [PRIM1]	4.85 ± 0.31	4.78 ± 0.3	–	–
TSLSLAQVGAKGDTANEIGQVLHF [SERPINB5]	3.06 ± 0.28	3.18 ± 0.37	–	–
TKKKQWCYNCEEEAMYHCCWNTSY [ZMYND11]	2.6 ± 0.25	2.45 ± 0.4	–	–
GKSFNRHCNLIRHQKIHTVAELV [ZSCAN9]	–	–	2.08 ± 0.28	2.05 ± 0.33
SGKRLSGVSSVDSAFSSRGSLSLS [RIPK4]	3.47 ± 0.62	3.57 ± 0.41	–	–
AQDLGELLATAEQEQLSLSQRQAK [LRRC45]	5.25 ± 0.3	5.34 ± 0.058	–	–
DVEGAESQLDEDEHGLHTKYIHRM [TRAF3IP2]	5.09 ± 0.23	5.13 ± 0.11	–	–

Sequence	protein stability index [1]	protein stability index [2]	protein stability index (treatment: DMSO, c terminus: native)	protein stability index (treatment: MLN4924 1 uM, 8 h, c terminus: native)
ELGEEAMEKFREDEGFIKEEERPL [KCNA1]	5.6 ± 0.31	5.63 ± 0.2	–	–
NVYRKRRKYFADLAMNYKHGDPIP [TPH1]	2.75 ± 0.13	2.9 ± 0.26	–	–
KKKRPPQPPEESQPPQSQAQVPPA [PLK2]	5.35 ± 0.23	5.46 ± 0.14	–	–
LSKSRENPEEDEDQRNPAKESLET [SOAT1]	5.47 ± 0.27	5.66 ± 0.34	–	–
KLEAEKRILQEKLDQPVSAPPSPR [CCDC6]	5.24 ± 0.26	5.21 ± 0.37	–	–
HEEVVEKVKKSGSRVMFLLVDKET [PDZK1]	3.97 ± 0.17	4.25 ± 0.23	–	–
AQPPDYTFPSGSGAHFPQVPGGAV [PI4K2A]	3.93 ± 0.19	4.01 ± 0.12	–	–
FDLERENACATKEQKNHTFPRLNR [PLD5]	4.55 ± 0.37	4.75 ± 0.28	–	–
LIHQHEKVIYLDDDVIVQGDIQEL [GLT8D2]	3.6 ± 0.26	3.59 ± 0.22	–	–
FHNAVSAYFAGNQKQLEQTLQQFN [ARFIP2]	2.45 ± 0.23	2.34 ± 0.42	–	–
LKNNETLVQHGVKPQEIVQVEIFS [IQUB]	2.82 ± 0.54	2.98 ± 0.7	–	–
NQIMPKAGLLIIVLAIIAREGDCA [MAGEA3]	3.02 ± 0.55	3.02 ± 0.76	–	–
ELDELQLCKNCFYLSNARPDNWFC [ZMYND11]	2.01 ± 0.25	2.3 ± 0.62	–	–
ERRRELVRSQTLPRTSEAQARKAL [SMTNL2]	5.27 ± 0.39	5.27 ± 0.29	–	–
DGSKSLGEENFEVVKQFVTGIIDS [MATN2]	4.38 ± 0.13	4.33 ± 0.27	–	–
MVLLIMKLDQLDQDIENALSTSSS [DLC1]	2.69 ± 0.58	2.49 ± 0.45	–	–
LERNPNGVADGVIKSVLWQTLQAL [CDKL4]	2.28 ± 0.94	2.56 ± 1.1	–	–
PDIMNLLIKSGAHFDATNLHKQTA [FEM1C]	2.39 ± 0.14	2.29 ± 0.26	–	–
GEEPVPHQQVEEALSFTLLGSAPL [NEK8]	4.33 ± 0.22	4.32 ± 0.29	–	–
TFPDLESEFQAALSRKVAKLVHFL [MAGEA6]	2.27 ± 0.2	2.22 ± 0.21	–	–
DPEPSGPHLPRVMLPGVLAGVSAE [SCNN1D]	4.59 ± 0.43	4.33 ± 0.21	–	–
